The target of test [1] is T1, extracellular domain of human CD70 (SEQ ID NO: 89), hCD70-Fc-trimer, ACRO Biosystems (human, UniProt P32970 52-193, chemically biotinylated where the biotinylated form was used).
T1 construct: also called human CD70-Fc-trimer; Bio.CD70
T1 sequence: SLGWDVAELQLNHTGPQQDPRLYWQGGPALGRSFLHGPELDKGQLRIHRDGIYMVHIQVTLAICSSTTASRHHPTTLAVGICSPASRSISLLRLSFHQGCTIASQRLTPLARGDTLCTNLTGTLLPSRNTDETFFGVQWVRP
The experiment in a line: SPR (ProteOn XPR36), target on GLC chip, DARPin as analyte. The text has this:
(§1) For that, DARPin® protein #27, DARPin® protein #29, DARPin® protein #47 and DARPin® protein #48 and DARPin® protein #49, DARPin® protein #50, DARPin® protein #51, DARPin® protein #52, DARPin® protein #31, DARPin® protein #53, DARPin® protein #54, DARPin® protein #55, DARPin® protein #34, DARPin® protein #33, DARPin® protein #39 and DARPin® protein #36 were subcloned and expressed as described above into derivatives of the pQE30 (Qiagen) expression vector, containing an N-terminal His-tag, CD33, CD123 and/or CD70 binding ankyrin repeat domains, followed by a CD3 specific ankyrin repeat domain and for some constructs by a human serum albumin specific ankyrin repeat domain.
(§2) Briefly, biotinylated human CD70, CD123 and CD33 was diluted in PBST (PBS, pH 7.4 containing 0.005% Tween 20®) and coated on a GLC chip (BioRad) to a level of around 200, 460 and 450 resonance units (RU) respectively. HSA in NaOAc pH 5.0 was directly immobilized on the GLC chip to a level of 800 RU. Bio.CD70, bio. CD33 and bio. CD123 required to have Neutravidin coated first to a level of 6000 RU before the biotinylated targets could be applied. The interaction of the selected ankyrin repeat proteins and human CD70, CD123 and CD33 was then measured by injecting 300 μl running buffer (PBS, pH 7.4 containing 0.005% Tween 20®) containing serial dilutions of ankyrin repeat proteins covering a concentration range between 100 nM and 2.6 nM (100, 40, 16, 6.4 and 2.6 nM respectively) for multi-trace SPR measurements, with an association of 120 s and dissociation of 1200 s using a constant flow of 100 μl/min. The regeneration was performed using 30 μl of 4 mM Glycine pH 2. The signals (i.e. resonance unit (RU) values) of the interspots and a reference injection (i.e. injection of running buffer only) were subtracted from the RU traces obtained after injection of ankyrin repeat protein (double-referencing).

For test [2], the target named is T2, human serum albumin (human, UniProt P02768 25-609).
T2 construct: also called HSA; SA
The description is as above.
Excerpt: as §1, §2

Test [3] has as its target T3, biotinylated extracellular domain of human CD33 (SEQ ID NO: 87), Fc and Avi tagged (human, UniProt P20138 18-259, biotinylated with BirA-GST (Avi tag)).
T3 construct: also called hCD33; human target hCD33
The test is described as above.
Excerpt: as §1, §2

In test [4] the target is T4, biotinylated extracellular domain of human CD123 (SEQ ID NO: 88), Fc and Avi tagged (human, UniProt P26951 19-303, biotinylated with BirA-GST (Avi tag)).
T4 construct: also called hCD123
T4 sequence: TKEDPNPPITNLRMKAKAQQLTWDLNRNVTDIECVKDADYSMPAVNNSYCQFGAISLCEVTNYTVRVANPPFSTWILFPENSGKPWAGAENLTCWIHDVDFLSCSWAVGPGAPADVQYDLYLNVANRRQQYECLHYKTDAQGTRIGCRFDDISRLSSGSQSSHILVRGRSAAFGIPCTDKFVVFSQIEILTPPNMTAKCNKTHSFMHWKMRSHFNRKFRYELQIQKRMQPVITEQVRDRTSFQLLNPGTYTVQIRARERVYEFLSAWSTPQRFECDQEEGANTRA
In words: SPR (ProteOn XPR36), target on GLC chip.
Excerpt: as §1, §2

For test [5], the target named is T4, biotinylated extracellular domain of …. In words: SPR (ProteOn XPR36), target on GLC chip, DARPin as analyte.
Excerpt: as §1, §2

Test [6] concerns the target T2, human serum albumin. The experiment in a line: SPR (ProteOn XPR36), target on GLC chip.
Excerpt: as §1, §2

In test [7] the target is T1, extracellular domain of human CD70 (SEQ …). The experiment in a line: SPR (ProteOn XPR36), target on GLC chip.
Excerpt: as §1, §2

T2 sequence (P02768 25-609 limits assumed): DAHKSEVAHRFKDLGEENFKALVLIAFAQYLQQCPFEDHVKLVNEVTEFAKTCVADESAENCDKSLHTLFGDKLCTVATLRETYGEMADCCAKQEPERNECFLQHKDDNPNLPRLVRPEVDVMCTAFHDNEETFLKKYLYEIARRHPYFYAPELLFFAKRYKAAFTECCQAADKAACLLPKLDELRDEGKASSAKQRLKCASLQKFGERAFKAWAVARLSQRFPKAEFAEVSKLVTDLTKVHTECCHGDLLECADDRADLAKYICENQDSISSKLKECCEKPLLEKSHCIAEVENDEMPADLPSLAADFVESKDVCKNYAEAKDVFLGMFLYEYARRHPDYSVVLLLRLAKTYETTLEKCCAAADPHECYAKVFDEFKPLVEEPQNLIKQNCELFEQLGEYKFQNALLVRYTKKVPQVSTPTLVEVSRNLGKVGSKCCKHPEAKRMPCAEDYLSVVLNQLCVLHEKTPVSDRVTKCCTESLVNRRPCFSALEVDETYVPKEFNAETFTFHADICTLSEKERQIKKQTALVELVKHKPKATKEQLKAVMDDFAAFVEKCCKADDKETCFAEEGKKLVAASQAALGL
T3 sequence (P20138 18-259 R69G): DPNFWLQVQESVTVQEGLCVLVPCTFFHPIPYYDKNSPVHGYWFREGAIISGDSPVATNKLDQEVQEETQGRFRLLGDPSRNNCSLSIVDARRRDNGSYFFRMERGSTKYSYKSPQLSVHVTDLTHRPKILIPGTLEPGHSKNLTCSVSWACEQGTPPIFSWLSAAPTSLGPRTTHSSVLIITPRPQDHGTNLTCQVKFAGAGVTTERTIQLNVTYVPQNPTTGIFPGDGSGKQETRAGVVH

B1: DARPin® protein #52 (designed binder)
chain: DLGYKLLQAAYDGQLDEVRILLKAGADVNAKDSRGQTPLHYAASIGHLEIVEVLLKAGADVNAKDDHGWTPLHLAAWSGHLEIVEVLLKAGADVNAQDQEGTTPADLAAVQGHQDIAEVLQKAAGSPTPTPTTPTPTPTTPTPTPTGSDLGVKLLLAASRGQLDEVRILLKAGADVNAKDIDEGYTPLHIAAYYGHLEIVEVLLKAGADVNAKDRYGKTPLHLAAISGHLEIVEVLLKAGADVNAQDDKGDTPADLAADYGHQDIAEVLQKAAGSPTPTPTTPTPTPTTPTPTPTGSDLGQKLLEAAWAGQDDEVRELLKAGADVNAKNSRGWTPLHTAAQTGHLEIFEVLLKAGADVNAKDDKGVTPLHLAAALGHLEIVEVLLKAGADVNAQDSWGTTPADLAAKYGHEDIAEVLQKAAGSPTPTPTTPTPTPTTPTPTPTGSDLGKKLLEAARAGQDDEVRELLKAGADVNAKDYFSHTPLHLAARNGHLKIVEVLLKAGADVNAKDFAGKTPLHLAAADGHLEIVEVLLKAGADVNAQDIFGKTPADIAADAGHEDIAEVLQKAA
notes: not shown: N-terminal His-tag
On to B1, for which the Kd in test [1] came out at 0.27 nM; in test [2] it was 48 nM; in test [3], 5.7 nM. Also, in test [4], the binding result is given as “no binding (tested: 100 nM (highest concentration))”.

B2: DARPin® protein #31 (designed binder)
chain: DLGYKLLQAAYDGQLDEVRILLKAGADVNAKDSRGQTPLHYAASIGHLEIVEVLLKAGADVNAKDDHGWTPLHLAAWSGHLEIVEVLLKAGADVNAQDQEGTTPADLAAVQGHQDIAEVLQKAAGSPTPTPTTPTPTPTTPTPTPTGSDLGKKLLEAALEGQLDEVRELLKAGADVNAKDQEGYTPLHLAAALGHLEIVEVLLKAGADVNAKDSIGRTPLHLAAYKGHLEIVEVLLKAGADVNAQDLLGETPADLAAEQGHQDIAEVLQKAAGSPTPTPTTPTPTPTTPTPTPTGSDLGVKLLRAAVHGQLDEVRILLKAGADVNAKDTDGETPLHYAAQFGHLEIVEVLLKAGADVNAKDAYGATPLHWAAWHGHLEIVEVLLKAGADVNAQDVSGATPADLAAKVGHQDIAEVLQKAAGSPTPTPTTPTPTPTTPTPTPTGSDLGQKLLEAAWAGQDDEVRELLKAGADVNAKNSRGWTPLHTAAQTGHLEIFEVLLKAGADVNAKDDKGVTPLHLAAALGHLEIVEVLLKAGADVNAQDSWGTTPADLAAKYGHEDIAEVLQKAA
notes: CD70-CD123-CD33-CD3; not shown: N-terminal His-tag
Turning to B2, the Kd in test [5] was 10 nM; in test [1] it was 0.31 nM; in test [3], 11 nM. Further, the binding result in test [6] was “no binding (tested: 100 nM (highest concentration))”.

B3: DARPin® protein #47 (designed binder)
chain: DLGKKLLEAARAGQDDEVRELLKAGADVNAKDYFSHTPLHLAARNGHLKIVEVLLKAGADVNAKDFAGKTPLHLAAADGHLEIVEVLLKAGADVNAQDIFGKTPADIAADAGHEDIAEVLQKAAGSPTPTPTTPTPTPTTPTPTPTGSDLGKKLLEAALEGQLDEVRELLKAGADVNAKDQEGYTPLHLAAALGHLEIVEVLLKAGADVNAKDSIGRTPLHLAAYKGHLEIVEVLLKAGADVNAQDLLGETPADLAAEQGHQDIAEVLQKAAGSPTPTPTTPTPTPTTPTPTPTGSDLGVKLLLAASRGQLDEVRILLKAGADVNAKDIDEGYTPLHIAAYYGHLEIVEVLLKAGADVNAKDRYGKTPLHLAAISGHLEIVEVLLKAGADVNAQDDKGDTPADLAADYGHQDIAEVLQKAAGSPTPTPTTPTPTPTTPTPTPTGSDLGQKLLEAAWAGQDDEVRELLKAGADVNAKNSRGWTPLHTAAQTGHLEIFEVLLKAGADVNAKDDKGVTPLHLAAALGHLEIVEVLLKAGADVNAQDSWGTTPADLAAKYGHEDIAEVLQKAA
notes: HSA-CD123-CD33-CD3; not shown: N-terminal His-tag
In the case of B3, the figures for the Kd in test [5], in test [2] and in test [3] were 8 nM, 15 nM and 5.4 nM, respectively. In test [7], the binding result is recorded as “no binding (tested: 100 nM (highest concentration))”.

B4: DARPin® protein #48 (designed binder)
chain: DLGKKLLEAARAGQDDEVRELLKAGADVNAKDYFSHTPLHLAARNGHLKIVEVLLKAGADVNAKDFAGKTPLHLAAADGHLEIVEVLLKAGADVNAQDIFGKTPADIAADAGHEDIAEVLQKAAGSPTPTPTTPTPTPTTPTPTPTGSDLGKKLLEAARAGQDDEVRELLKAGADVNAKDYFSHTPLHLAARNGHLKIVEVLLKAGADVNAKDFAGKTPLHLAAADGHLEIVEVLLKAGADVNAQDIFGKTPADIAADAGHEDIAEVLQKAAGSPTPTPTTPTPTPTTPTPTPTGSDLGKKLLEAALEGQLDEVRELLKAGADVNAKDQEGYTPLHLAAALGHLEIVEVLLKAGADVNAKDSIGRTPLHLAAYKGHLEIVEVLLKAGADVNAQDLLGETPADLAAEQGHQDIAEVLQKAAGSPTPTPTTPTPTPTTPTPTPTGSDLGVKLLLAASRGQLDEVRILLKAGADVNAKDIDEGYTPLHIAAYYGHLEIVEVLLKAGADVNAKDRYGKTPLHLAAISGHLEIVEVLLKAGADVNAQDDKGDTPADLAADYGHQDIAEVLQKAAGSPTPTPTTPTPTPTTPTPTPTGSDLGQKLLEAAWAGQDDEVRELLKAGADVNAKNSRGWTPLHTAAQTGHLEIFEVLLKAGADVNAKDDKGVTPLHLAAALGHLEIVEVLLKAGADVNAQDSWGTTPADLAAKYGHEDIAEVLQKAA
notes: HSA-HSA-CD123-CD33-CD3; not shown: N-terminal His-tag
Turning to B4, the Kd in test [5] came to 5.1 nM; in test [2] it was 1.1 nM; in test [3], 4.2 nM. Further, the binding result in test [7] is given as “no binding (tested: 100 nM (highest concentration))”.

B5: DARPin® protein #49 (designed binder)
chain: DLGKKLLEAALEGQLDEVRELLKAGADVNAKDQEGYTPLHLAAALGHLEIVEVLLKAGADVNAKDSIGRTPLHLAAYKGHLEIVEVLLKAGADVNAQDLLGETPADLAAEQGHQDIAEVLQKAAGSPTPTPTTPTPTPTTPTPTPTGSDLGVKLLLAASRGQLDEVRILLKAGADVNAKDIDEGYTPLHIAAYYGHLEIVEVLLKAGADVNAKDRYGKTPLHLAAISGHLEIVEVLLKAGADVNAQDDKGDTPADLAADYGHQDIAEVLQKAAGSPTPTPTTPTPTPTTPTPTPTGSDLGQKLLEAAWAGQDDEVRELLKAGADVNAKNSRGWTPLHTAAQTGHLEIFEVLLKAGADVNAKDDKGVTPLHLAAALGHLEIVEVLLKAGADVNAQDSWGTTPADLAAKYGHEDIAEVLQKAAGSPTPTPTTPTPTPTTPTPTPTGSDLGKKLLEAARAGQDDEVRELLKAGADVNAKDYFSHTPLHLAARNGHLKIVEVLLKAGADVNAKDFAGKTPLHLAAADGHLEIVEVLLKAGADVNAQDIFGKTPADIAADAGHEDIAEVLQKAA
notes: CD123-CD33-CD3-HSA; not shown: N-terminal His-tag
Take B5: the Kd in test [5] stood at 23 nM; in test [2], 14 nM; in test [3], 6.8 nM. Further, in test [7], the binding result was “no binding (tested: 100 nM (highest concentration))”.

B6: DARPin® protein #36 (designed binder)
chain: DLGVKLLLAASRGQLDEVRILLKAGADVNAKDIDEGYTPLHIAAYYGHLEIVEVLLKAGADVNAKDRYGKTPLHLAAISGHLEIVEVLLKAGADVNAQDDKGDTPADLAADYGHQDIAEVLQKAA
notes: CD33-specific ankyrin repeat domain; not shown: N-terminal His-tag
Regarding B6, the Kd in test [3] stood at 6.7 nM. Also, the binding result in test [4], in test [7] and in test [6] was “no binding (tested: 100 nM (highest concentration))” throughout.

Broadly, the Kd is the concentration at which binding is half-saturated. Read a high Kd as a looser complex.

The values above are taken from US20240254229A1 (Molecular Partners, published 2024).
